What was measured:
sDR5-Fc蛋白 = biological target: T1, sDR5-Fc蛋白 (UniProt O14763 56-182, limits assumed); experiment: BLI (OCTET K2), sDR5-Fc 10 ug/ml captured on AHC sensors, 6C93D6 at 76-4.75 nM in solution
T1 construct: Immunogen and BLI ligand; not shown: it was captured on AHC (Anti-hIgG Fc Capture) sensors

jurkat细胞表面的DR5蛋白 = jurkat细胞表面的DR5蛋白 (UniProt O14763 56-440, limits assumed); experiment: cell-based or functional assay
人DR4抗原 = biological target: T2, 人DR4抗原 (human, UniProt O00220 24-239, limits assumed); experiment: ELISA, DR4 coated, goat anti-mouse IgG-HRP, OD450
T2 construct: also called death receptor 4
T2 sequence (looked up): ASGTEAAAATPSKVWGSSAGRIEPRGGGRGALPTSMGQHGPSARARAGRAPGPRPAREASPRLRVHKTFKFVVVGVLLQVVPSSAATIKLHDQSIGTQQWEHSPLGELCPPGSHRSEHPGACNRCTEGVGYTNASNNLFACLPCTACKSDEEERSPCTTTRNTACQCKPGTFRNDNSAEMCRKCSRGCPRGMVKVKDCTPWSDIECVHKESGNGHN

sDR5-Fc-biotin = sDR5-Fc-biotin (UniProt O14763); experiment: competition ELISA: sDR5-Fc-biotin 7.5 ug/ml preincubated with 6C93D6 30 ug/ml, added to coated human TRAIL (5 ug/ml); Streptavidin-HRP; the OD is the remaining binding of the complex to TRAIL

Kd (sDR5-Fc蛋白): 6.77 nM
诱导HepaRG细胞凋亡的EC50 (1ug/ml交联剂 anti-mouse IgG Fc antibody; MTS/PMS, A490-A630) (jurkat细胞表面的DR5蛋白): 68.5 pg/mL
诱导HepaRG细胞凋亡的EC50 (无交联剂; MTS/PMS, A490-A630) (jurkat细胞表面的DR5蛋白): 1.1 µg/mL
binding result (人DR4抗原): no binding
OD450 (sDR5-Fc-biotin): 0.105
B1: 6C93D6抗体 (抗DR5的单克隆抗体) (antibody, V domains shown)
VH: EVQLQQSGPDLVKPGASVKISCKASGYSFTGHYMHWVKQSHGQSLEWIGRVNPNNGGTGYNQKFKDKAILTVDKPSSTAYMELRSLTSEDSAVYYCARNGAYYRSDGNYFDYWGQGTTLTVSS
VL: DIVLTQSTPSLAVSLGQRATISCRASESVDSYGNSFMHWFQQKPGQPPKLLIYRASNLESGIPARFSGSGSRTDFTLTINPVEADDVATYYCQQSNEDPYTFGGGTKLEIK
notes: Mouse hybridoma monoclonal antibody purified from ascites on Protein G

From patent publication CN109810193A (SHENZHEN INST ADV TECH, dated 2019)
